The results in this text go back to patent US20260274980A1 (BIOARCTIC, published 2026).

For the test, the target named is T1, human transferrin receptor 1 (hTfR1) on cell surfaces (human, UniProt P02786 1-760).
T1 construct: Endogenous receptor on hCMEC/D3, THP-1, K562 and Ramos cells; also called CD71; endogenous hTfR1
Kind of test: flow cytometry on Ramos cells (hTfR1 on the surface), Fc receptors blocked, overnight at 4 °C, detection with anti-human IgG-Alexa Fluor 488. The method, then:
Binding to hTfR1 on cells was measured on the immortalized human B lymphocyte cell line Ramos (Sigma, cat: 85030802). This cell line is known for expressing high levels of hTfR1 on the cell surface. Fcγ receptors were blocked using Fc receptor blocker (Innovex biosciences, #NB309-4X-40) for 30 min at 4° C., after which the cells were washed in PBS. The cells were seeded in a 96 well V bottom plate (#249570, Thermo Scientific Nunc), and serially diluted Gen 2A constructs were added and the plate was incubated at 4° C. overnight. The cells were washed with PBS with 1% BSA and then fixed with freshly prepared 4% formaldehyde (Thermo Scientific Pierce, #28906) diluted in PBS for 15 min at room temperature. The cells were washed with PBS containing 1% BSA, and then stained. […] Staining was carried out for 30 min at 4° C. After incubation with the detection reagent, cells were washed with PBS containing 1% BSA. The cells were finally resuspended in 200 μl PBS with 1% BSA and acquired using a BD FACSLyric flow cytometer system (BD Biosciences). Samples were analyzed using flowJo software (BD Biosciences).

T1 sequence (P02786 whole entry): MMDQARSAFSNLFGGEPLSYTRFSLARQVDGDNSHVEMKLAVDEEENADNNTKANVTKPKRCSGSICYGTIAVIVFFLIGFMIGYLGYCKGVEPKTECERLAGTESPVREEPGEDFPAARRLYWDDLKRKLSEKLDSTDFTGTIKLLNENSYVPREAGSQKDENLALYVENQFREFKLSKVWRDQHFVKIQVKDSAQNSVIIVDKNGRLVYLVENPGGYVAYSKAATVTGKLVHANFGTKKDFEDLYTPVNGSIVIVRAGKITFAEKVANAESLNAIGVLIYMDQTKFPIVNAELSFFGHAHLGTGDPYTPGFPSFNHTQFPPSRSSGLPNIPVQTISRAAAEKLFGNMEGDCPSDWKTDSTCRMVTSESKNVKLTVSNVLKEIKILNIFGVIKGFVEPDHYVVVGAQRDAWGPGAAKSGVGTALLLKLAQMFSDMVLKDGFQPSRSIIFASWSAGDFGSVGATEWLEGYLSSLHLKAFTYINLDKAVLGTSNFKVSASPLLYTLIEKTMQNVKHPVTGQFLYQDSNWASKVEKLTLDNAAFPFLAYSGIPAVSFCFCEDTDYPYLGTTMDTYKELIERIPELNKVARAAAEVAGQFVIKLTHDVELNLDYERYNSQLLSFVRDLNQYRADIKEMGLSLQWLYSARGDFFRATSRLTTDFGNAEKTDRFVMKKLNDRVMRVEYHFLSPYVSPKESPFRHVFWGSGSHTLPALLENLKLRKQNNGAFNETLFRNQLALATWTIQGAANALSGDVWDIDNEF

B1: 2A-3 #2 (bispecific antibody, human IgG1, kappa)
heavy: not shown
chain: DIVMTQAPLSLPVSLGDQASISCRSSQSIVHSNGNTYLEWYLQKPGQSPKLLIYKVSNRFSGVPDRFSGSGSGTDFTLKISRVEAEDLGIYYCFQGSHVPPTFGGGTKLEIKRTVAAPSVFIFPPSDEQLKSGTASVVCLLNNFYPREAKVQWKVDNALQSGNSQESVTEQDSKDSTYSLSSTLTLSKADYEKHKVYACEVTHQGLSSPVTKSFNRGECGGGGSGGGGSEVQLVQSGAEVKKPGSSVKVSCKASGYIFTDYNMDWVRQAPGQGLEWIGDINPDADTTSYNEKFKGRATLTVDKSTSTAYMELSSLRSEDTAVYYCARGGYSGSSYYHPMDYWGQGTLVTVSSGGGGSGGGGSGGGGSDIQMTQSPSSVSASVGDRVTITCKSSQSLLYSTNQKNYLAWYQQKPGKAPKLLIYWASTRESGVPSRFSGSGSGTDFTLTISSLQPEDFATYYCQQYFIYPRTFGQGTKVEIKGGGGSGGGGSGGGGSGGGGSDIVMTQAPLSLPVSLGDQASISCRSSQSIVHSNGNTYLEWYLQKPGQSPKLLIYKVSNRFSGVPDRFSGSGSGTDFTLKISRVEAEDLGIYYCFQGSHVPPTFGGGTKLEIKRTVAAPSVFIFPPSDEQLKSGTASVVCLLNNFYPREAKVQWKVDNALQSGNSQESVTEQDSKDSTYSLSSTLTLSKADYEKHKVYACEVTHQGLSSPVTKSFNRGEC
notes: also called Gen 2A construct #2; VH first
For the molecule B1, the binding result is given as “binds”.

B2: 2A-3 #11 (bispecific antibody, human IgG1, kappa)
heavy: not shown
chain: DIVMTQAPLSLPVSLGDQASISCRSSQSIVHSNGNTYLEWYLQKPGQSPKLLIYKVSNRFSGVPDRFSGSGSGTDFTLKISRVEAEDLGIYYCFQGSHVPPTFGGGTKLEIKRTVAAPSVFIFPPSDEQLKSGTASVVCLLNNFYPREAKVQWKVDNALQSGNSQESVTEQDSKDSTYSLSSTLTLSKADYEKHKVYACEVTHQGLSSPVTKSFNRGECGGGGSDIQMTQSPSSVSASVGDRVTITCKSSQSLLYSTNQKNYLAWYQQKPGKAPKLLIYWASTRESGVPSRFSGSGSGTDFTLTISSLQPEDFATYYCQQYFIYPRTFGQGTKVEIKGGGGSGGGGSGGGGSEVQLVQSGAEVKKPGSSVKVSCKASGYIFTDYNMDWVRQAPGQGLEWIGDINPDADTTSYNEKFKGRATLTVDKSTSTAYMELSSLRSEDTAVYYCARGGYSGSSYYHPMDYWGQGTLVTVSSGGGGSGGGGSGGGGSGGGGSGGGGSDIVMTQAPLSLPVSLGDQASISCRSSQSIVHSNGNTYLEWYLQKPGQSPKLLIYKVSNRFSGVPDRFSGSGSGTDFTLKISRVEAEDLGIYYCFQGSHVPPTFGGGTKLEIKRTVAAPSVFIFPPSDEQLKSGTASVVCLLNNFYPREAKVQWKVDNALQSGNSQESVTEQDSKDSTYSLSSTLTLSKADYEKHKVYACEVTHQGLSSPVTKSFNRGEC
notes: also called Gen 2A construct #11; VL first
For the molecule B2, the binding result is on record as “binds”.

B3: 2A-3 #1 (bispecific antibody, human IgG1, kappa)
heavy: not shown
chain: DIVMTQAPLSLPVSLGDQASISCRSSQSIVHSNGNTYLEWYLQKPGQSPKLLIYKVSNRFSGVPDRFSGSGSGTDFTLKISRVEAEDLGIYYCFQGSHVPPTFGGGTKLEIKRTVAAPSVFIFPPSDEQLKSGTASVVCLLNNFYPREAKVQWKVDNALQSGNSQESVTEQDSKDSTYSLSSTLTLSKADYEKHKVYACEVTHQGLSSPVTKSFNRGECGGGGSEVQLVQSGAEVKKPGSSVKVSCKASGYIFTDYNMDWVRQAPGQGLEWIGDINPDADTTSYNEKFKGRATLTVDKSTSTAYMELSSLRSEDTAVYYCARGGYSGSSYYHPMDYWGQGTLVTVSSGGGGSGGGGSGGGGSDIQMTQSPSSVSASVGDRVTITCKSSQSLLYSTNQKNYLAWYQQKPGKAPKLLIYWASTRESGVPSRFSGSGSGTDFTLTISSLQPEDFATYYCQQYFIYPRTFGQGTKVEIKGGGGSGGGGSGGGGSGGGGSDIVMTQAPLSLPVSLGDQASISCRSSQSIVHSNGNTYLEWYLQKPGQSPKLLIYKVSNRFSGVPDRFSGSGSGTDFTLKISRVEAEDLGIYYCFQGSHVPPTFGGGTKLEIKRTVAAPSVFIFPPSDEQLKSGTASVVCLLNNFYPREAKVQWKVDNALQSGNSQESVTEQDSKDSTYSLSSTLTLSKADYEKHKVYACEVTHQGLSSPVTKSFNRGEC
notes: also called Gen 2A construct #1; VH first
As to B3, the binding result was “binds”.

B4: 2A-3 #7 (bispecific antibody, human IgG1, kappa)
heavy: not shown
chain: DIVMTQAPLSLPVSLGDQASISCRSSQSIVHSNGNTYLEWYLQKPGQSPKLLIYKVSNRFSGVPDRFSGSGSGTDFTLKISRVEAEDLGIYYCFQGSHVPPTFGGGTKLEIKRTVAAPSVFIFPPSDEQLKSGTASVVCLLNNFYPREAKVQWKVDNALQSGNSQESVTEQDSKDSTYSLSSTLTLSKADYEKHKVYACEVTHQGLSSPVTKSFNRGECGGGGSGGGGSGGGGSGGGGSGGGGSEVQLVQSGAEVKKPGSSVKVSCKASGYIFTDYNMDWVRQAPGQGLEWIGDINPDADTTSYNEKFKGRATLTVDKSTSTAYMELSSLRSEDTAVYYCARGGYSGSSYYHPMDYWGQGTLVTVSSGGGGSGGGGSGGGGSDIQMTQSPSSVSASVGDRVTITCKSSQSLLYSTNQKNYLAWYQQKPGKAPKLLIYWASTRESGVPSRFSGSGSGTDFTLTISSLQPEDFATYYCQQYFIYPRTFGQGTKVEIKGGGGSGGGGSGGGGSGGGGSGGGGSDIVMTQAPLSLPVSLGDQASISCRSSQSIVHSNGNTYLEWYLQKPGQSPKLLIYKVSNRFSGVPDRFSGSGSGTDFTLKISRVEAEDLGIYYCFQGSHVPPTFGGGTKLEIKRTVAAPSVFIFPPSDEQLKSGTASVVCLLNNFYPREAKVQWKVDNALQSGNSQESVTEQDSKDSTYSLSSTLTLSKADYEKHKVYACEVTHQGLSSPVTKSFNRGEC
notes: also called Gen 2A construct #7; VH first
With B4, the binding result is recorded as “binds”.

B5: 2A-3 #10 (bispecific antibody, human IgG1, kappa)
heavy: not shown
chain: DIVMTQAPLSLPVSLGDQASISCRSSQSIVHSNGNTYLEWYLQKPGQSPKLLIYKVSNRFSGVPDRFSGSGSGTDFTLKISRVEAEDLGIYYCFQGSHVPPTFGGGTKLEIKRTVAAPSVFIFPPSDEQLKSGTASVVCLLNNFYPREAKVQWKVDNALQSGNSQESVTEQDSKDSTYSLSSTLTLSKADYEKHKVYACEVTHQGLSSPVTKSFNRGECGGGGSGGGGSGGGGSDIQMTQSPSSVSASVGDRVTITCKSSQSLLYSTNQKNYLAWYQQKPGKAPKLLIYWASTRESGVPSRFSGSGSGTDFTLTISSLQPEDFATYYCQQYFIYPRTFGQGTKVEIKGGGGSGGGGSGGGGSEVQLVQSGAEVKKPGSSVKVSCKASGYIFTDYNMDWVRQAPGQGLEWIGDINPDADTTSYNEKFKGRATLTVDKSTSTAYMELSSLRSEDTAVYYCARGGYSGSSYYHPMDYWGQGTLVTVSSGGGGSGGGGSGGGGSGGGGSDIVMTQAPLSLPVSLGDQASISCRSSQSIVHSNGNTYLEWYLQKPGQSPKLLIYKVSNRFSGVPDRFSGSGSGTDFTLKISRVEAEDLGIYYCFQGSHVPPTFGGGTKLEIKRTVAAPSVFIFPPSDEQLKSGTASVVCLLNNFYPREAKVQWKVDNALQSGNSQESVTEQDSKDSTYSLSSTLTLSKADYEKHKVYACEVTHQGLSSPVTKSFNRGEC
notes: also called Gen 2A construct #10; VL first
For the molecule B5, the binding result is “binds”.

B6: 2A-3 #9 (bispecific antibody, human IgG1, kappa)
heavy: not shown
chain: DIVMTQAPLSLPVSLGDQASISCRSSQSIVHSNGNTYLEWYLQKPGQSPKLLIYKVSNRFSGVPDRFSGSGSGTDFTLKISRVEAEDLGIYYCFQGSHVPPTFGGGTKLEIKRTVAAPSVFIFPPSDEQLKSGTASVVCLLNNFYPREAKVQWKVDNALQSGNSQESVTEQDSKDSTYSLSSTLTLSKADYEKHKVYACEVTHQGLSSPVTKSFNRGECGGGGSGGGGSDIQMTQSPSSVSASVGDRVTITCKSSQSLLYSTNQKNYLAWYQQKPGKAPKLLIYWASTRESGVPSRFSGSGSGTDFTLTISSLQPEDFATYYCQQYFIYPRTFGQGTKVEIKGGGGSGGGGSGGGGSEVQLVQSGAEVKKPGSSVKVSCKASGYIFTDYNMDWVRQAPGQGLEWIGDINPDADTTSYNEKFKGRATLTVDKSTSTAYMELSSLRSEDTAVYYCARGGYSGSSYYHPMDYWGQGTLVTVSSGGGGSGGGGSGGGGSGGGGSDIVMTQAPLSLPVSLGDQASISCRSSQSIVHSNGNTYLEWYLQKPGQSPKLLIYKVSNRFSGVPDRFSGSGSGTDFTLKISRVEAEDLGIYYCFQGSHVPPTFGGGTKLEIKRTVAAPSVFIFPPSDEQLKSGTASVVCLLNNFYPREAKVQWKVDNALQSGNSQESVTEQDSKDSTYSLSSTLTLSKADYEKHKVYACEVTHQGLSSPVTKSFNRGEC
notes: also called Gen 2A construct #9; VL first
Take B6: the binding result is reported as “binds”.

B7: 2A-3 #4 (bispecific antibody, human IgG1, kappa)
heavy: not shown
chain: DIVMTQAPLSLPVSLGDQASISCRSSQSIVHSNGNTYLEWYLQKPGQSPKLLIYKVSNRFSGVPDRFSGSGSGTDFTLKISRVEAEDLGIYYCFQGSHVPPTFGGGTKLEIKRTVAAPSVFIFPPSDEQLKSGTASVVCLLNNFYPREAKVQWKVDNALQSGNSQESVTEQDSKDSTYSLSSTLTLSKADYEKHKVYACEVTHQGLSSPVTKSFNRGECGGGGSEVQLVQSGAEVKKPGSSVKVSCKASGYIFTDYNMDWVRQAPGQGLEWIGDINPDADTTSYNEKFKGRATLTVDKSTSTAYMELSSLRSEDTAVYYCARGGYSGSSYYHPMDYWGQGTLVTVSSGGGGSGGGGSGGGGSDIQMTQSPSSVSASVGDRVTITCKSSQSLLYSTNQKNYLAWYQQKPGKAPKLLIYWASTRESGVPSRFSGSGSGTDFTLTISSLQPEDFATYYCQQYFIYPRTFGQGTKVEIKGGGGSGGGGSGGGGSGGGGSGGGGSDIVMTQAPLSLPVSLGDQASISCRSSQSIVHSNGNTYLEWYLQKPGQSPKLLIYKVSNRFSGVPDRFSGSGSGTDFTLKISRVEAEDLGIYYCFQGSHVPPTFGGGTKLEIKRTVAAPSVFIFPPSDEQLKSGTASVVCLLNNFYPREAKVQWKVDNALQSGNSQESVTEQDSKDSTYSLSSTLTLSKADYEKHKVYACEVTHQGLSSPVTKSFNRGEC
notes: also called Gen 2A construct #4; VH first
For B7, the binding result was “binds”.
